Experimental data from article PMC9929644 (The EMBO Journal, 2023).

Tests used:
GST‐LMO4 = GST‐LMO4 (UniProt P61968); experiment: ITC
MBP‐Jacob‐262‐532 = target: T1, MBP‐Jacob‐262‐532 (UniProt Q9EPI6 262-532); experiment: pull-down
T1 sequence (looked up): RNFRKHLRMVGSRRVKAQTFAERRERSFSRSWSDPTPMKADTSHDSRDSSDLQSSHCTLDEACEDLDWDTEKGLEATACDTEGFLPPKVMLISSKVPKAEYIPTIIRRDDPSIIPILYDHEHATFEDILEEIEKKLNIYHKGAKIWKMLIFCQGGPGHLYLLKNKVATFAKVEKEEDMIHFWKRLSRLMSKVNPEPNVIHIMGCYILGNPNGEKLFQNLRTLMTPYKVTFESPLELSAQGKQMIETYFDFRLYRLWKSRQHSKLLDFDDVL

Chain of Jacob (protein of the ITC experiment) (Q9EPI6 whole entry): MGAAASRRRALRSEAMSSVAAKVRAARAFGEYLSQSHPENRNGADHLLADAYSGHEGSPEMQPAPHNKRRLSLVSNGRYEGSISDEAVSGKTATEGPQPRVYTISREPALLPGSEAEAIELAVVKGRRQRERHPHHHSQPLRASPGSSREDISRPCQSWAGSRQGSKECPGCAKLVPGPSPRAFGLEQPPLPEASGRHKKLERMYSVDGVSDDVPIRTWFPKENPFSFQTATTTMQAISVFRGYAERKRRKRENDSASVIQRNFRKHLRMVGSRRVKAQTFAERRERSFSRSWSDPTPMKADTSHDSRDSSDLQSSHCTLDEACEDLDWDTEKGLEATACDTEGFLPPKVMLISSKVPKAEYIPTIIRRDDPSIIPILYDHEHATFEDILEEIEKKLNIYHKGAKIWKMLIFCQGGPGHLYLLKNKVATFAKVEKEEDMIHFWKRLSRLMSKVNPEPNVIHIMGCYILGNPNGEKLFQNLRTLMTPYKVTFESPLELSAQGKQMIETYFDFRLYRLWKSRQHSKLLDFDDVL

Molecule: Jacob (protein of the ITC experiment) (from UniProt Q9EPI6 1-532) (natural protein)
- Kd (GST‐LMO4): 370 nM

Molecule: REAARECRRKKKEYVKCLENRVAVLENQNKTLIEELKALKDLYCHKSD (domain or fragment, UniProt P15337-1 294-341, looked up) [bZIP domain of CREB (His‐SUMO‐CREB‐294‐341)]
- binding result (MBP‐Jacob‐262‐532): binds
